Assay results from article PMC2190564.

Biological target: yeast actin filaments (S. cerevisiae) (UniProt P60010)
Assay: co-sedimentation

Kd: < 100 nM
stoichiometry N (Abp1p per actin (molar)): 1
Substance: native yeast Abp1p (from UniProt P15891 1-592) (natural protein)
